Assay results: PMC5736104 (Nature, 2017)

Target: the molecule itself
Assay: cryo-EM structure

B1: Hrd1, truncated after the RING finger domain (amino acids 1-407) (domain or fragment, S. cerevisiae, UniProt Q08109 1-407, looked up)
chain: MVPENRRKQLAIFVVVTYLLTFYCVYSATKTSVSFLQVTLKLNEGFNLMVLSIFILLNSTLLWQLLTKLLFGELRLIEHEHIFERLPFTIINTLFMSSLFHERYFFTVAFFGLLLLYLKVFHWILKDRLEALLQSINDSTTMKTLIFSRFSFNLVLLAVVDYQIITRCISSIYTNQKSDIESTSLYLIQVMEFTMLLIDLLNLFLQTCLNFWEFYRSQQSLSNENNHIVHGDPTDENTVESDQSQPVLNDDDDDDDDDRQFTGLEGKFMYEKAIDVFTRFLKTALHLSMLIPFRMPMMLLKDVVWDILALYQSGTSLWKIWRNNKQLDDTLVTVTVEQLQNSANDDNICIICMDELIHSPNQQTWKNKNKKPKRLPCGHILHLSCLKNWMERSQTCPICRLPVFDEK
stoichiometry N: 2
